# In patent publication US8487082B2, “Synthetic scFv analogue to the 6313/G2 (anti angiotensin II type 1 receptor) monoclonal antibody variable regions” (Queen Mary & Westfield College, priority 2008, dated 2013):
# Assays:
# MCF-7 cells = assay: In vitro hollow fiber assay; assay type: cell-based; settings: MCF-7, in the presence of angiotensin II, 48 h
# Method: (§1) Hollow Fiber procedures followed the method of Hollingshead. (Hollingshead et al Life Sci 57 131-41 (1995)).
# (§2) Polyvinylidene difluoride (PVDF) hollow fibers (500 kDa cut-off, 1 mm inner diameter; Spectrum Europe B.V., Breda, Netherlands) were flushed through with 70% ethanol using a blunt 21 gauge needle and 10 ml syringe. Fibers were then immersed in 70% ethanol for 72 hours, flushed through again with 70% ethanol, then distilled water, and then autoclaved at 131° C. Finally, before loading cell suspensions, fibers were flushed through with RPMI 1640 culture medium. Cells (MCF-7, T47D, and MDA-MB-231) were introduced into fibers at densities of 2.5 to 3.0×10^6 cells/ml. Fibers were then heat-sealed at 2 cm intervals and placed in Petri dishes containing 3 ml of the cell appropriate medium.
# (§3) Cell viability was measured using a modified MTT assay. Fibers were incubated in RPMI 1640 with 20% FBS containing 1 mg/ml MTT, and incubated at 37° C. under […], 5% CO2 for 4 hours. The reagent was aspirated, and 2 ml sterile filtered 2.5% protamine sulphate (0.9 g NaCl, 2.5 g protamine sulphate in 100 ml water) was added. Specimens were stored at 4° C. for a minimum of 24 hours in the dark to fix the formazan product. Fresh protamine sulphate (2.5%) was added and fibers were stored for a further 2 to 4 hours at 4° C. Each fiber was transferred to a well in a 24 well plate, cut in half and air-dried overnight, protected from light. Dimethyl sulphoxide (DMSO) (300 μl) was added to each well and the formazan product extracted. An aliquot (190 μl) from each well was transferred to a 96 well plate and absorbance read at 540 nm using a Multiskan Ascent photometric microplate reader (Thermo labsystem). Treated values were calculated as a percentage of the controls.
# T47D cells = assay: In vitro hollow fiber assay; assay type: cell-based; settings: in the presence of angiotensin II, 48 h
# Method: as §1, §2, §3
# MDA-MB-231 cells = assay: In vitro hollow fiber assay; assay type: cell-based; settings: MDA-MB-231, in the presence of angiotensin II, 48 h
# Method: as §1, §2, §3
# [1] = Rat blood pressure (tail cuff); set-up: species or system Female Wistar rats; settings: intact rats in vivo
# Method: Rats were chosen for this part of the study in view of their greater tractability in blood pressure assays. Female Wistar rats were first acclimatised to handling and the blood pressure equipment for 4-5 days before experimentation. Blood pressure in the conscious animals was determined using a Kent Scientific Corporation (Torrington Conn., USA) Coda 6+ tail cuff system in which the animals were held in warmed restrainers while blood pressures were assessed. Animals were first stabilised and their basal blood pressure taken before treatment. They were then briefly removed from the restrainers for sc injection of R6313/G2, 0.4 mg/kg in sterile PBS (0.1 ml). Controls received PBS alone. Blood pressures were then taken at intervals over a period of 1 hour, before restoring to cages. The procedures were repeated daily for 3 days.
# [2] = Body weight and mortality in xenograft assay; assay type: in vivo, mice; settings: for body weight: MCF7 xenograft mice
# Method: Mice were injected s.c. on the right-flank, with 150 μl sterile PBS containing 7.5×10^6 MCF-7 cells. Tumour cells were allowed to grow for 4 weeks without hormone support, thereafter mice received weekly s.c. injections of 17β-oestradiol valerate (0.1 mg/Kg body weight), in sesame oil (Kasukabe et al., Breast Cancer Res. 7(6) R1097-110 (2005)) for a further 8 weeks. Animals were monitored daily for general health, and body weights were measured twice-weekly. Tumour size was measured 3 times per week with slide callipers, and volumes were calculated as (L×W^2)/2, where L and W are the major and minor diameters, respectively. Once tumour volumes reached 150 to 200 mm^3, mice were randomized to treatment and control groups of 8 to 10 per group. Mice were treated by subcutaneous injections of R6313/G2 in sterile PBS (0.1 ml) at doses of 0.4 mg/kg (13 nmol/kg), 0.8 mg/kg (27 nmol/Kg), and 1.36 mg/kg (45.3 nmol/kg) body weight, twice per day for seven days. Control mice received sterile PBS. At the termination of the study, animals were sacrificed by cervical dislocation. Relative body weights (%) were calculated as (Wt/Wi)×100, where Wt is the body weight at any given time and Wi is the body weight at treatment initiation. Net tumour volume was calculated as Vt-Vi, where Vt is the tumour volume at any given time and Vi is the tumour volume at the start of treatment, and expressed as a percentage of Vi.
# [3] = test system: cancer cells in hollow fibers; assay: In vivo hollow fiber assay (summary statements); set-up: species or system nu/nu mice
# Method: as §1
# Cell-loaded hollow fiber segments were incubated at 37° C. in culture medium overnight before implantation into pure strain 5-6 week old female balb/c nu/nu mice. Fibers were implanted into the animals under anaesthesia (2% Isofluorane). Three 2 cm fibers, each containing one of the cell lines MCF-7, T47D, or MDA-MB-231, were implanted at both subcutaneous (s.c.) and intraperitoneal (i.p.) sites into each animal. For i.p. implants, a small incision was made through the skin and musculature of the ventral abdominal wall. Fibers were placed into the peritoneal cavity and both incisions were closed with metallic suture clips (Harvard Instruments, Edenbridge UK). For s.c. implants, a small incision was made dorsally. The fibers were implanted to the left of the dorsal midline in a cranial direction. The small incision was closed with metallic suture clips. […]
# Cell viability was measured using a modified MTT assay. […] An aliquot (190 μl) from each well was transferred to a 96 well plate and absorbance read at 540 nm using a Multiskan Ascent photometric microplate reader (Thermo labsystem). Treated values were calculated as a percentage of the controls.
molecule,measurement,setting,value
"R6313/G2: murine scFv analogue of the 6313/G2 anti-AT1 receptor monoclonal antibody variable domains, SEQ ID NO:15 (protein, 12D) scFv: YAAQPAMAQVKLQQSGPELEKPGASVKISCKASGYSFTGYNMNWVKQSNGKSLEWIGNIDPYYGGTTYNQKFKGKATLTVDKSSSTAYMQLKSLTSEDSAVYYCAREVDYWGQGTTVTVSSGGGGSGGGGSGGGGSDIELTQSPASLAVSLGQRATISYRASKSVSTSGYSYMHWNQQKPGQPPRLLIYLVSNLESGVPARFSGSGSGTDFTLNIHPVEEEDAATYYCQHIRELTRSEGTKLEIKRAAAGAPVPY",cell survival in hollow fibers in vitro,MCF-7 cells,dose dependently inhibited survival
same,cell survival in hollow fibers in vitro,T47D cells,dose dependently inhibited survival
same,cell survival in hollow fibers in vitro,MDA-MB-231 cells,dose dependently inhibited survival
same,resting blood pressure,[1],does not reduce and may even increase resting blood pressure
same,stress-induced increases in blood pressure,[1],significantly inhibits the stress-induced increases in blood pressure
same,other effects in xenograft mice,[2]; 13 nmol/kg,without other effects
same,mortality,"[2]; 0.4 mg/kg twice per day, during the treatment period",no mortality
same,mortality,"[2]; 0.8 mg/kg group, by day 8, n=8",four died by day 8
same,mortality,"[2]; 0.8 mg/kg twice per day, during the treatment period",no mortality
same,mortality,"[2]; 1.36 mg/kg group, by day 8",all died by day 8
same,body weight,[2]; 0.4 mg/kg (13 nmol/kg) twice per day,no weight loss
same,body weight,[2]; 0.8 mg/kg (27 nmol/kg) twice per day,no weight loss
same,body weight,[2]; 1.36 mg/kg (45.3 nmol/kg) twice per day,significantly reduced
same,in vitro concentration giving an anti-cancer cell effect equivalent to 25 nmol/Kg in vivo,[3]; comparison of in vivo dose 25 nmol/Kg with in vitro,3.3 µmol/L
same,cancer cell growth in hollow fibers,[3]; intact nu/nu mice bearing cancer cells in hollow fibers,significantly inhibited cancer cell growth
